The values that follow come from US20250381223A1 (UTC THERAPEUTICS SHANGHAI, published 2025).

Assay [1] concerns the target T1, CD123-Fc recombinant protein (human, UniProt P26951 19-305).
T1 construct: construct not described; not shown: Fc part
T1 sequence (looked up): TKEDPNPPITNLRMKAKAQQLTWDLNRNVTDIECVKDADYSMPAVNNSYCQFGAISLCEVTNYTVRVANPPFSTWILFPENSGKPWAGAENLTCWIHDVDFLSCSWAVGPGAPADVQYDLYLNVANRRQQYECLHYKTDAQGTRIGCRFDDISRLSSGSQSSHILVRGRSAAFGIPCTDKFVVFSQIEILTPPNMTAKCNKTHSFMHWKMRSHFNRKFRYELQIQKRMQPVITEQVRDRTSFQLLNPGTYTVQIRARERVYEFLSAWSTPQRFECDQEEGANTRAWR
Nature of the assay: flow cytometry of T cells electroporated with CAR mRNA, stained with CD123-Fc + PE-anti-hIgG-Fc; Mock 1.68. Here is the method: (§1) The CD123 CAR mRNAs obtained in Example 35 above were each introduced into T cells by electroporation according to the following procedures: T cells were collected, washed with the Opti-MEM medium, and resuspended at 1×10e⁷/mL with the Opti-MEM medium; 10 μg of RNA and 100 μL of T cells were aliquoted, mixed well, and electroporated under the following parameters (BTX machine): 500 V, 0.7 ms; the cells were then transferred to a pre-warmed medium and cultured at 37° C. The binding of CD123 CART cells to the CD123-Fc recombinant protein was detected by FACS staining. […] Empty vector (Mock) was a control T cell without CAR molecule. A549 tumor cells were electroporated with different amounts of CD123 mRNA. The electroporation procedure was the same as described above, and only the parameters were changed, with the parameters 300 V, 0.5 ms used. CD123 expression in A549 tumor cells was detected by FACS staining of isotype or anti-CD123 antibodies and A549 cells electroporated with different amounts of CD123 mRNA. […] The cytotoxicity of CD123 CART cells against tumor cells was detected in an in vitro cytotoxicity assay. Tumor cells expressing EGFP or EGFP-A549 cells electroporated with different amounts of tumor antigen were seeded at 3000 cells/100 μL/well into a flat-bottom 96-well plate; CART cells were diluted to a proper concentration and seeded to the 100 μL/well tumor cells according to different E/T ratios (e.g., 10:1, 3:1, or 1:1), and the co-culture plate was placed into the IncuCyte S3 machine and scanning parameters were set. After scanning for 3 days, the total green object integrated intensity (GCU×μm²/well) was analyzed to calculate the killing efficiency.

Assay [2] deals with T1, CD123-Fc recombinant protein. Nature of the assay: flow cytometry of T cells electroporated with CAR mRNA, stained with CD123-Fc + PE-anti-hIgG-Fc. Here is the method: as §1
For assay [3] the target is unchanged. Nature of the assay: flow cytometry of T cells electroporated with CAR mRNA, stained with CD123-Fc + PE-anti-hIgG-Fc; Mock 0.36. Here is the method: as §1
Assay [4] deals with T2, recombinant human CD40-His antigen protein (human, UniProt P25942 21-193).
T2 construct: Bought protein; also called recombinant CD40-His protein; CD40 antigen; not shown: His tag
The assay can be described thus: ELISA; plate coated with CD40-His 2 µg/mL; HRP-anti-hFc. Here is the method: The binding activities of the affinity-matured antibodies for antigen CD40 were detected by ELISA. The experimental procedures were as follows: [0637] 1. 50 μL of recombinant CD40-His protein at a concentration of 2 μg/mL was added to each well of an ELISA plate, and the plate was incubated at 4° C. overnight. […] 2. The next day, the ELISA plate was washed 3 times with PBST (containing 0.05% Tween-20). [0639] 3. 250 μL of 5% skim milk powder (dissolved in PBS) was added to each well of the ELISA plate, and the plate was incubated at room temperature for 2 h. [0640] 4. The plate was washed 3 times with PBST, antibodies with different dilution ratios were added to the ELISA plate at 50 μL/well, and the plate was incubated at room temperature for 60 min. [0641] 5. The plate was washed 3 times with PBST, 50 μL of HRP-anti-hFc antibody was added to each well, and the plate was incubated at room temperature for 60 min. [0642] 6. The plate was washed 3 times with PBST, 50 μL of TMB was added to each well, and after color development at room temperature, 50 μL of 2 M HCl was added to each well to stop the reaction. The plate was read at 450 nm.

Assay [5] addresses T3, CD40-Fc ( for this staining reagent …, UniProt P25942).
T3 construct: soluble Fc fusion; Staining reagent, detected with PE-anti-Fc
Nature of the assay: flow cytometry, T cells with diabody mRNA and M12 CAR mRNA, CD40-Fc + PE-anti-Fc; E1 0.48, E2 (M12 only) 0.77.

Another assay deals with T4, Meso-biotin.
T4 construct: Meso-Fc and PE-anti-Fc for this staining
Nature of the assay: flow cytometry, T cells with diabody mRNA only, Meso-biotin + PE-Streptavidin; E1 0.29.

Assay [6] deals with T3, CD40-Fc. The assay can be described thus: flow cytometry, T cells with 10 µg diabody mRNA only, CD40-Fc + PE-anti-Fc; E1 (no mRNA) 0.48.

Changes are numbered by the printed parent chain.

B1: C12 (scFv)
scFv: QSVLTQPPSVSAAPGQKVTISCSGSSSNIGNNYVSWYQQLPGTAPKLLIFDDNKRPSGIPDRFSGSLSGTSASLAISGLQSEDDADYYCSAWDDSLSGYVFGTGTKLTVLGGGGSGGGGSGGGGSQVQLVQSGGGLVKPGGSLRLSCAASGFTFSSYNINWVRQAPGKGPEWVSSISSSSSYRYYADSVKGRFTISRDNAKNSLYLQMNSLRAEDTAVYYCVRDKTGGYGTAFDYWGQGTLVTVSS
notes: also called anti-CD123 scFv-C12
As to B1, the “percent of cells in the CD123-Fc positive gate” value in assay [1] was determined as 1.37%. In addition, the binding result in assay [2] is reported as “no binding”.

B2: C22 (scFv)
scFv: SYELTQPPSVSVAPGKTARITCGANNIETKSVHWYRQRPGQAPILVIYYDSDRPSGIPERFSGSTSGDTATLTISRVEAEDEADYYCQVWDSTSDHVVFGEGTKLTVLGGGGSGGGGSGGGGSEVQLVESGAEVKKPGESLKISCKGSGYSFTSYWIGWVRQMPGKGLEWMGIINPSGGSTSYAQKFQGRVTMTRDTSTSTVYMELSSLRSEDTAVYYCARVVTPYYPLTNWGQGTLVTVSS
notes: also called anti-CD123 scFv-C22
Turning to B2, the binding result in assay [2] is “no binding”. In addition, in assay [3], the “percent of cells in the CD123-Fc positive gate” value amounted to 0.53%.

B3: C31 (scFv)
scFv: QPVLTQPPSMSGTPGQRVTISCSGGNSNIGDNSVSWYQQLPGTAPKLLIYNNNQRPLGVPDRFSGSKSGTSASLAIRGLQSEDEAHYYCSSWDDSLEGAQFGGGTKVTVLGGGGSGGGGSGGGGSEVQLVESGGGLVKPGGSLRLSCAASGFTFSDYYMSWIRQAPGKGLEWVSYISSSGSTIYYADSVKGRFTISRDNAKNSLYLQMNSLRAEDTAVYYCARGHQYYDFWSGYSNWFDPWGQGTLVTVSS
notes: also called anti-CD123 scFv-C31
On to B3, for which the binding result in assay [2] is listed as “no binding”. The “percent of cells in the CD123-Fc positive gate” value in assay [3] is 0.64%.

B4: 4052.12 (antibody, V domains shown)
VH: QVQLVQSGAEVKKPGSSVKVSCKASGGTFSSYAVSWVRQAPGQGLEWMGMINPSGGTTSYAQKFQGRVTMTRDTSTSTVYMELSSLRPEDTAVYYCARGFRMDQWGQGTLVTVSS
VL: QSALTQPPSASGSPGQSVTISCTGTSSDVGAYNFVSWYQQHPGNAPKLIIYDVRKRPRGIPDRFSASKSGNTASLTVSGLQADDEADYYCSSYAGNNNLVFGGGTKLTVL
Regarding B4, the EC50 in assay [4] turned out to be 0.124 µg/mL.

B5: 4052.25 (antibody, V domains shown)
VH: B4 VH with V34I
VL: B4 VL with R58S, N98R
Take B5: the EC50 in assay [4] is 0.111 µg/mL.

B6: 4052.36 (antibody, V domains shown)
VH: B4 VH with E10Q, V34I
VL: B4 VL with R58I
On to B6, for which the EC50 in assay [4] is 0.134 µg/mL.

B7: 4052.28 (antibody, V domains shown)
VH: B4 VH with V34I
VL: B4 VL with V53T, R58S
In the case of B7, in assay [4], the half-maximal effective concentration (EC50) was 0.116 µg/mL.

B8: 4.6 (bispecific antibody)
single chain, scFv-G4S-scFv: QVQLVQSGAEVKKPGSSVKVSCKASGGTFSSYAISWVRQAPGQGLEWMGMINPSGGTTSYAQKFQGRVTMTRDTSTSTVYMELSSLRPEDTAVYYCARGFRMDQWGQGTLVTVSSGGGGSGGGGSGGGGSQSALTQPPSASGSPGQSVTISCTGTSSDVGAYNFVSWYQQHPGNAPKLIIYDVRKRPSGIPDRFSASKSGNTASLTVSGLQADDEADYYCSSYAGNNNLVFGGGTKLTVLGGGGSQVKLQESGPGLVKPSETLSITCTVSGFSLSDYGVHWVRQSPGKGLEWLGVIWAGGGTNYNSALMSRKTISKDNSKSQVFLKMSSLTAADTAVYYCARDKGYSYYYSMDYWGQGTTVTVSSGGGGSGGGGSGGGGSDIQLTQSPSSLSVSVGDRVTISCRASESVEYYVTSLMQWYQQKPGQAPKLLIFAASNVESGVPSRFSGSGSGTNFTLTISSVQEEDFAMYFCQQSRKVPYTFGGGTKLEIK
notes: Expressed from mRNA in T cells; A signal peptide is not described; also called parent diabody 4.6
Turning to B8, the “percent of cells in the gate” value worked out at 83.9% with CD40-Fc [5], 0.72% in the assay with Meso-biotin and 81.6% in the assay with CD40-Fc [6].

B9: 5.28 (bispecific antibody)
single chain, scFv-G4S-scFv: B8 single chain, scFv-G4S-scFv with V183T
As to B9, the “percent of cells in the gate” value in the assay with CD40-Fc [5] was found to be 87.4%; with Meso-biotin it was 0.94%; in the assay with CD40-Fc [6], 85.8%.

B10: 5.36 (bispecific antibody)
single chain, scFv-G4S-scFv: B8 single chain, scFv-G4S-scFv with E10Q, S188I
As for B10, the “percent of cells in the gate” value in the assay with CD40-Fc [5] is 94.2%; with Meso-biotin, 1.14%; in the assay with CD40-Fc [6] it was 88%.

B11: 5.12 (bispecific antibody)
single chain, scFv-G4S-scFv: B8 single chain, scFv-G4S-scFv with I34V, S188R
Turning to B11, the “percent of cells in the gate” value with CD40-Fc [5] was determined as 87.9%; in the assay with Meso-biotin, 1.11%; with CD40-Fc [6], 93.6%.

B12: 5.25 (bispecific antibody)
single chain, scFv-G4S-scFv: B8 single chain, scFv-G4S-scFv with N228R
Turning to B12, the results for the “percent of cells in the gate” value with CD40-Fc [5], with Meso-biotin and with CD40-Fc [6] were 92.9%, 2.36% and 92.7%, respectively.

B13: 5.17 (bispecific antibody)
single chain, scFv-G4S-scFv: B8 single chain, scFv-G4S-scFv with N228E, L229M
notes: how the two are joined there is not described; also called diabody part of M12-5.17 and 5.17-M12
As for B13, the “percent of cells in the gate” value in the assay with CD40-Fc [5] worked out at 88.1%; with Meso-biotin it was 1.12%; with CD40-Fc [6], 82.1%.
